Test results published in publication PMC5066845.
Blank lines part the entries; values can stand above or below the substance they belong to.

Assays:
[1] = biological target: F-actin polymerised on a streptavidin biosensor from biotinylated and non-biotinylated G-actin (1:4) (rabbit | human) (UniProt P68135); test: BLI
[2] = biological target: mouse DNGR-1 extracellular domain (ECD), wild type (mouse); test: BLI

Kd [1]: > 100000 nM
Substance: mouse DNGR-1 ECD W155A W250A (domain or fragment)

Kd [1]: > 50000 nM
Substance: mouse DNGR-1 ECD K251A (domain or fragment)

Kd [2]: 8.7 nM
koff [2]: 6.4e-05 s⁻¹
kon [2]: 7600 M⁻¹ s⁻¹
Substance: short F-actin filaments capped and stabilized with gelsolin (from UniProt P60709;P06396) (complex)

Second part, the substance before the results:

Substance: mouse DNGR-1 ECD N140A Y150A (domain or fragment)
Kd [1]: 2700 nM

Substance: mouse DNGR-1 extracellular domain (ECD), wild type (domain or fragment)
Kd [1]: 1600 nM
koff [1]: 0.848 s⁻¹
kon [1]: 1.5e+06 M⁻¹ s⁻¹
